Measured values taken from publication PMC9472616.

Key:
[1] = target: American mink ACE2 fused to mouse Fc (AmkACE2-mFc) (American mink (Neovison vison)); assay: SPR
[2] = target: European mink ACE2 fused to mouse Fc (EmkACE2-mFc) (European mink); assay: SPR

SARS-CoV-2 WT RBD (from UniProt P0DTC2 319-541) (domain or fragment)
Kd [1]: 8.92 µM
Kd [2]: 52.8 µM
